Patent US20200048332A1 (BIOVERATIV USA, published 2020)

Legend:
activated C1s [1] = biological target: T1, activated C1s (human, UniProt P09871 16-688); assay: cell-based or functional assay
T1 sequence: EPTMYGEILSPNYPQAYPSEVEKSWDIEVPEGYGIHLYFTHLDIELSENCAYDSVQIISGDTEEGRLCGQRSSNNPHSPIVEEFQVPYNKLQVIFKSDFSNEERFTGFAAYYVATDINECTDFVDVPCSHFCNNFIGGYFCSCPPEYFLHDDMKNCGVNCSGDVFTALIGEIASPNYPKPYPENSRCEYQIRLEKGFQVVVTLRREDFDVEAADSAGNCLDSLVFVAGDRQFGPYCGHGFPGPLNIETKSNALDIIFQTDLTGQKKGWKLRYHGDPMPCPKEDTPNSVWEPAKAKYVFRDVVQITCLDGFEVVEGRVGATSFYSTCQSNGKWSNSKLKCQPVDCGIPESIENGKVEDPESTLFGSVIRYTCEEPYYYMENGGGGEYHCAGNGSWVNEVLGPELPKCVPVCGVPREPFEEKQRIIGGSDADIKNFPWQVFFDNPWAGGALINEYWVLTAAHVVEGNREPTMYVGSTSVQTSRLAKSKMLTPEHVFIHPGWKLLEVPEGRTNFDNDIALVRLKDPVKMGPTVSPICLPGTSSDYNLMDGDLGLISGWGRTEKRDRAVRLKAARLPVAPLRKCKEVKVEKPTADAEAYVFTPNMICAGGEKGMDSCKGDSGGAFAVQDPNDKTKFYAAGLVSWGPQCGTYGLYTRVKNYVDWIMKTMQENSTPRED

activated C1s [2] = biological target: T1, activated C1s; assay: method not stated; dissociation constant for active C1s

B1: murine anti-activated C1s antibody (antibody, V domains shown)
VH: EVQLQQSGAELVRPGASVKLSCTASGFNIKDDYIHWVKQRPEQGLEWIGRIDPADGHTKYAPKFQVKATITADTSSNTAYLQLSSLTSEDTAVYYCARYGYGREVFDYWGQGTTLTVSS
VL: DIVLTQSPASLAVSLGQRATISCKASQSVDYDGDSYMNWYQQKTGQPPKILIYDASNLESGIPARFSGSGSGTDFTLNIHPVEEEDAAIYYCQQSNEDPWTFGGGTKLEIK
IC50 of classical complement pathway inhibition ('Classical Pathway Inhibition', IC50 (M)) (activated C1s [1]): 1.06e-09 M

B2: humanized VH3/Vk2 (antibody, V domains shown)
VH: QVQLVQSGAEVKKPGASVKLSCTASGFNIKDDYIHWVKQAPGQGLEWIGRIDPADGHTKYAPKFQVKVTITADTSTSTAYLELSSLRSEDTAVYYCARYGYGREVFDYWGQGTTVTVSS
VL: DIVLTQSPDSLAVSLGERATISCKASQSVDYDGDSYMNWYQQKPGQPPKILIYDASNLESGIPARFSGSGSGTDFTLTISSLEPEDFAIYYCQQSNEDPWTFGGGTKVEIK
IC50 of classical complement pathway inhibition ('Classical Pathway Inhibition', IC50 (M)) (activated C1s [1]): 1.26e-09 M

B3: humanized VH2/Vk5 (antibody, V domains shown)
VH: EVQLVQSGAEVKKPGASVKLSCTASGFNIKDDYIHWVKQAPGQGLEWIGRIDPADGHTKYAPKFQVKATITADTSTNTAYLELSSLRSEDTAVYYCARYGYGREVFDYWGQGTTVTVSS
VL: DIVLTQSPDSLAVSLGERATISCKASQSVDYDGDSYMNWYQQKPGQPPKLLIYDASNLESGIPARFSGSGSGTDFTLTISSLEPEDFAVYYCQQSNEDPWTFGGGTKVEIK
IC50 of classical complement pathway inhibition ('Classical Pathway Inhibition', IC50 (M)) (activated C1s [1]): 1.27e-09 M

B4: humanized VH5/Vk2 (antibody, V domains shown)
VH: QVQLVQSGAEVKKPGASVKVSCAASGFNIKDDYIHWVRQAPGQGLEWIGRIDPADGHTKYAPKFQVKVTITADTSTSTAYMELSSLRSEDTAVYYCARYGYGREVFDYWGQGTTVTVSS
VL: DIVLTQSPDSLAVSLGERATISCKASQSVDYDGDSYMNWYQQKPGQPPKILIYDASNLESGIPARFSGSGSGTDFTLTISSLEPEDFAIYYCQQSNEDPWTFGGGTKVEIK
IC50 of classical complement pathway inhibition ('Classical Pathway Inhibition', IC50 (M)) (activated C1s [1]): 1.33e-09 M

B5: humanized VH1/Vk1 (antibody, V domains shown)
VH: EVQLVQSGAELKKPGASVKLSCTASGFNIKDDYIHWVKQAPGQGLEWIGRIDPADGHTKYAPKFQVKATITADTSTNTAYLQLSSLTSEDTAVYYCARYGYGREVFDYWGQGTTVTVSS
VL: DIVLTQSPDSLAVSLGERATISCKASQSVDYDGDSYMNWYQQKTGQPPKILIYDASNLESGIPARFSGSGSGTDFTLTISSLEEEDFAIYYCQQSNEDPWTFGGGTKVEIK
IC50 of classical complement pathway inhibition ('Classical Pathway Inhibition', IC50 (M)) (activated C1s [1]): 1.2e-09 M

B6: humanized VH4/Vk2 (antibody, V domains shown)
VH: QVQLVQSGAEVKKPGASVKVSCTASGFNIKDDYIHWVRQAPGQGLEWIGRIDPADGHTKYAPKFQVKVTITADTSTSTAYMELSSLRSEDTAVYYCARYGYGREVFDYWGQGTTVTVSS
VL: DIVLTQSPDSLAVSLGERATISCKASQSVDYDGDSYMNWYQQKPGQPPKILIYDASNLESGIPARFSGSGSGTDFTLTISSLEPEDFAIYYCQQSNEDPWTFGGGTKVEIK
IC50 of classical complement pathway inhibition ('Classical Pathway Inhibition', IC50 (M)) (activated C1s [1]): 1.31e-09 M

B7: humanized VH1/Vk2 (antibody, V domains shown)
VH: EVQLVQSGAELKKPGASVKLSCTASGFNIKDDYIHWVKQAPGQGLEWIGRIDPADGHTKYAPKFQVKATITADTSTNTAYLQLSSLTSEDTAVYYCARYGYGREVFDYWGQGTTVTVSS
VL: DIVLTQSPDSLAVSLGERATISCKASQSVDYDGDSYMNWYQQKPGQPPKILIYDASNLESGIPARFSGSGSGTDFTLTISSLEPEDFAIYYCQQSNEDPWTFGGGTKVEIK
IC50 of classical complement pathway inhibition ('Classical Pathway Inhibition', IC50 (M)) (activated C1s [1]): 1.14e-09 M

B8: humanized VH1/Vk5 (antibody, V domains shown)
VH: EVQLVQSGAELKKPGASVKLSCTASGFNIKDDYIHWVKQAPGQGLEWIGRIDPADGHTKYAPKFQVKATITADTSTNTAYLQLSSLTSEDTAVYYCARYGYGREVFDYWGQGTTVTVSS
VL: DIVLTQSPDSLAVSLGERATISCKASQSVDYDGDSYMNWYQQKPGQPPKLLIYDASNLESGIPARFSGSGSGTDFTLTISSLEPEDFAVYYCQQSNEDPWTFGGGTKVEIK
IC50 of classical complement pathway inhibition ('Classical Pathway Inhibition', IC50 (M)) (activated C1s [1]): 1.26e-09 M

B9: humanized VH3/Vk1 (antibody, V domains shown)
VH: QVQLVQSGAEVKKPGASVKLSCTASGFNIKDDYIHWVKQAPGQGLEWIGRIDPADGHTKYAPKFQVKVTITADTSTSTAYLELSSLRSEDTAVYYCARYGYGREVFDYWGQGTTVTVSS
VL: DIVLTQSPDSLAVSLGERATISCKASQSVDYDGDSYMNWYQQKTGQPPKILIYDASNLESGIPARFSGSGSGTDFTLTISSLEEEDFAIYYCQQSNEDPWTFGGGTKVEIK
IC50 of classical complement pathway inhibition ('Classical Pathway Inhibition', IC50 (M)) (activated C1s [1]): 1.27e-09 M

B10: humanized VH4/Vk1 (antibody, V domains shown)
VH: QVQLVQSGAEVKKPGASVKVSCTASGFNIKDDYIHWVRQAPGQGLEWIGRIDPADGHTKYAPKFQVKVTITADTSTSTAYMELSSLRSEDTAVYYCARYGYGREVFDYWGQGTTVTVSS
VL: DIVLTQSPDSLAVSLGERATISCKASQSVDYDGDSYMNWYQQKTGQPPKILIYDASNLESGIPARFSGSGSGTDFTLTISSLEEEDFAIYYCQQSNEDPWTFGGGTKVEIK
IC50 of classical complement pathway inhibition ('Classical Pathway Inhibition', IC50 (M)) (activated C1s [1]): 1.35e-09 M

B11: humanized VH5/Vk1 (antibody, V domains shown)
VH: QVQLVQSGAEVKKPGASVKVSCAASGFNIKDDYIHWVRQAPGQGLEWIGRIDPADGHTKYAPKFQVKVTITADTSTSTAYMELSSLRSEDTAVYYCARYGYGREVFDYWGQGTTVTVSS
VL: DIVLTQSPDSLAVSLGERATISCKASQSVDYDGDSYMNWYQQKTGQPPKILIYDASNLESGIPARFSGSGSGTDFTLTISSLEEEDFAIYYCQQSNEDPWTFGGGTKVEIK
IC50 of classical complement pathway inhibition ('Classical Pathway Inhibition', IC50 (M)) (activated C1s [1]): 1.08e-09 M

B12: humanized VH4/Vk5 (antibody, V domains shown)
VH: QVQLVQSGAEVKKPGASVKVSCTASGFNIKDDYIHWVRQAPGQGLEWIGRIDPADGHTKYAPKFQVKVTITADTSTSTAYMELSSLRSEDTAVYYCARYGYGREVFDYWGQGTTVTVSS
VL: DIVLTQSPDSLAVSLGERATISCKASQSVDYDGDSYMNWYQQKPGQPPKLLIYDASNLESGIPARFSGSGSGTDFTLTISSLEPEDFAVYYCQQSNEDPWTFGGGTKVEIK
IC50 of classical complement pathway inhibition ('Classical Pathway Inhibition', IC50 (M)) (activated C1s [1]): 1.54e-09 M

B13: humanized VH3/Vk5 (antibody, V domains shown)
VH: QVQLVQSGAEVKKPGASVKLSCTASGFNIKDDYIHWVKQAPGQGLEWIGRIDPADGHTKYAPKFQVKVTITADTSTSTAYLELSSLRSEDTAVYYCARYGYGREVFDYWGQGTTVTVSS
VL: DIVLTQSPDSLAVSLGERATISCKASQSVDYDGDSYMNWYQQKPGQPPKLLIYDASNLESGIPARFSGSGSGTDFTLTISSLEPEDFAVYYCQQSNEDPWTFGGGTKVEIK
IC50 of classical complement pathway inhibition ('Classical Pathway Inhibition', IC50 (M)) (activated C1s [1]): 1.38e-09 M

B14: humanized VH2/Vk1 (antibody, V domains shown)
VH: EVQLVQSGAEVKKPGASVKLSCTASGFNIKDDYIHWVKQAPGQGLEWIGRIDPADGHTKYAPKFQVKATITADTSTNTAYLELSSLRSEDTAVYYCARYGYGREVFDYWGQGTTVTVSS
VL: DIVLTQSPDSLAVSLGERATISCKASQSVDYDGDSYMNWYQQKTGQPPKILIYDASNLESGIPARFSGSGSGTDFTLTISSLEEEDFAIYYCQQSNEDPWTFGGGTKVEIK
IC50 of classical complement pathway inhibition ('Classical Pathway Inhibition', IC50 (M)) (activated C1s [1]): 1.23e-09 M

B15: humanized VH5/Vk5 (antibody, V domains shown)
VH: QVQLVQSGAEVKKPGASVKVSCAASGFNIKDDYIHWVRQAPGQGLEWIGRIDPADGHTKYAPKFQVKVTITADTSTSTAYMELSSLRSEDTAVYYCARYGYGREVFDYWGQGTTVTVSS
VL: DIVLTQSPDSLAVSLGERATISCKASQSVDYDGDSYMNWYQQKPGQPPKLLIYDASNLESGIPARFSGSGSGTDFTLTISSLEPEDFAVYYCQQSNEDPWTFGGGTKVEIK
IC50 of classical complement pathway inhibition ('Classical Pathway Inhibition', IC50 (M)) (activated C1s [1]): 1.33e-09 M

B16: VH3/VK2-Fc-sub4 (antibody, human IgG4 S228P, kappa, V domains shown)
VH: QVQLVQSGAEVKKPGASVKLSCTASGFNIKDDYIHWVKQAPGQGLEWIGRIDPADGHTKYAPKFQVKVTITADTSTSTAYLELSSLRSEDTAVYYCARYGYGREVFDYWGQGTTVTVSS
VL: DIVLTQSPDSLAVSLGERATISCKASQSVDYDGDSYMNWYQQKPGQPPKILIYDASNLESGIPARFSGSGSGTDFTLTISSLEPEDFAIYYCQQSNEDPWTFGGGTKVEIKR
notes: Humanized IgG4; also called TNT020; humanized anti-aC1s variant VH3/VK2-Fc-sub4
Kd (activated C1s [2]): 1.53 nM
